Among the targets are CCFHC NZF-1-F2F3 (Rattus norvegicus, UniProt P70475 487-584, H515F;H559F); MyT1-F2F3 (Rattus norvegicus, UniProt D3ZYT5 425-521); CCHFC NZF-1-F2F3 (Rattus norvegicus, UniProt P70475 487-584, H522A;H523F;H567F); NZF-1-F2F3 (Rattus norvegicus, UniProt P70475 487-584).
Assay in all cases: fluorescence anisotropy
(In fluorescence polarisation assays a small probe gives low polarisation when free and higher when bound to something large.)

Sequence of CCHFC NZF-1-F2F3 (P70475 487-584 H522A/H523F/H567F): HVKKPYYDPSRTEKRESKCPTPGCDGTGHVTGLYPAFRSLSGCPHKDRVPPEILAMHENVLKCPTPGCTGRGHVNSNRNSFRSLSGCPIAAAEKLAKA
Sequence of CCFHC NZF-1-F2F3 (P70475 487-584 H515F/H559F): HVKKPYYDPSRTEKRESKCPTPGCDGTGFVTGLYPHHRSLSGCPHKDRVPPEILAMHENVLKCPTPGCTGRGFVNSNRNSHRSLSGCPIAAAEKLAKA
Sequence of NZF-1-F2F3 (P70475 487-584): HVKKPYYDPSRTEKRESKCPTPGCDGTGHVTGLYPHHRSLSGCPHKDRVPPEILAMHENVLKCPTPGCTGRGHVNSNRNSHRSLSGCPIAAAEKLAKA

B1: β-RAR DNA (dsDNA)
DNA 1: CACCGAAAGTTCACTC
DNA 2: GAGTGAACTTTCGGTG
The term Kd denotes the concentration at which binding is half-saturated. Lower therefore signals higher affinity. As for B1, the binding result with CCFHC NZF-1-F2F3 and with CCHFC NZF-1-F2F3 was “no binding” throughout. The Kd with MyT1-F2F3 was 1300 nM; in the series with NZF-1-F2F3, 14 nM.

B2: random DNA (dsDNA)
DNA 1: TGTTTCTGCCTCTGT
DNA 2: ACAGAGGCAGAAACA
On to B2, for which the binding result with CCFHC NZF-1-F2F3, in the series with CCHFC NZF-1-F2F3 and with NZF-1-F2F3 was “no binding” each time. For the same molecule, in the series with MyT1-F2F3, the Kd was 910 nM.

The values are drawn from publication PMC3671583.
